Holding throughout (test): Crosslinking/co-immunoprecipitation/mass spectrometry (TMT quantitative proteomics) to identify irisin receptors
What all share (assay type): binding

Assay [1] concerns the target T1, MLO-Y4 cell surface proteins (Mus musculus, UniProt O35143).
T1 construct: endogenous in cells; host or cells: MLO-Y4
T1 sequence (O35143 26-106): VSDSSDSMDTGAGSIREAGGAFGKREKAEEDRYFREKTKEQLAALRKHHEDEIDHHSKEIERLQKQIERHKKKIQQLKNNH
As to conditions: co-precipitated protein Atpif1 (ATIF1_MOUSE). An outline of the steps: (§1)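 Mouse MLO-Y4 cells were switched to serum-free FreeStyle medium for 4 h, chilled, then exposed to 10 nM His-tagged irisin (or adipsin as control) for 20 min. Cells were crosslinked with 1.5 mM DTSSP (30 min, ice), and bound proteins were pulled down on Ni-NTA and eluted with 250 mM imidazole. Eluates were separated by SDS-PAGE, trypsin-digested in gel, TMT 6-plex labelled and quantified by MS3-based LC-MS/MS on an Orbitrap Fusion Lumos.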

Assay [2] concerns the target T2, MLO-Y4 cell surface proteins (Mus musculus, UniProt P39654).
T2 construct: endogenous in cells; host or cells: MLO-Y4
T2 sequence (P39654 1-663): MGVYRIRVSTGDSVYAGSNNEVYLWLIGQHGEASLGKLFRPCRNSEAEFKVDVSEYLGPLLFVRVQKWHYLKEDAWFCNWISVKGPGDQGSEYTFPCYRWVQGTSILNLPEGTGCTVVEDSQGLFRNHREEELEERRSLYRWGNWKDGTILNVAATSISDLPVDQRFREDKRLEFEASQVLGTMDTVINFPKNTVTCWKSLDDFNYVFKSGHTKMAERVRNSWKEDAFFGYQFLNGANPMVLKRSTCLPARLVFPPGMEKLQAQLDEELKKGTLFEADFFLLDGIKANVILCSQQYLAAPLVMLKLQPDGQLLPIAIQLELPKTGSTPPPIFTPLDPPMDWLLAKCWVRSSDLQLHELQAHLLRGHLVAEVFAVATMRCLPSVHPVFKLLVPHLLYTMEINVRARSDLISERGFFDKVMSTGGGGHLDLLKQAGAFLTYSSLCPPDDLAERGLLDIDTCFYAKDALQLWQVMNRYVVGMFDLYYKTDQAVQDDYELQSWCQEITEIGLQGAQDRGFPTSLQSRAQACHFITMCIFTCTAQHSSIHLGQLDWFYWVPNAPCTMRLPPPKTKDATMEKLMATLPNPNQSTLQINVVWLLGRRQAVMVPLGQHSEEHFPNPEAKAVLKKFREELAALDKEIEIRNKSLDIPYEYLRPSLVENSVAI
To be noted: co-precipitated protein Alox15 (LOX15_MOUSE). An outline of the steps: as §1

Assay [3] deals with T3, MLO-Y4 cell surface proteins (Mus musculus, UniProt Q8R1J9).
T3 construct: endogenous in cells; host or cells: MLO-Y4
T3 sequence (Q8R1J9 27-321): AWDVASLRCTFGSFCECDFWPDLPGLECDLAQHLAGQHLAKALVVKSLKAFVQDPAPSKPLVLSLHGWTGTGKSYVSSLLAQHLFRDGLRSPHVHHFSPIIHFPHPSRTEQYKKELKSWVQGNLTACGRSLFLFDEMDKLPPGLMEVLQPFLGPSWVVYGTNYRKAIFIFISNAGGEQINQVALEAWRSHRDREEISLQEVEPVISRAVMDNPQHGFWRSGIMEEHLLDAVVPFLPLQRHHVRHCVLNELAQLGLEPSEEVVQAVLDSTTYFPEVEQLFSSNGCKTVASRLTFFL
As to conditions: co-precipitated protein Tor2a (TOR2A_MOUSE). An outline of the steps: as §1

As to adipsin, the TMT signal-to-noise ratio in assay [1] was determined as 454.155; in assay [2] it was 141.336; in assay [3], 696.28.

Source of the values: patent US20210063414A1, “METHODS FOR PREVENTING AND/OR TREATING BONE LOSS CONDITIONS BY MODULATING IRISIN” (Dana-Farber Cancer Institute, Inc., priority 2018, published 2021).
